Test results as given in patent US20210040155A1 (RHYTHM PHARMACEUTICALS, published 2021).
Bridge positions count the residues as written; N and C are the ends. Square brackets hold non-standard residues; d marks the D form. dPhe(4-F) = N[C@H](Cc1ccc(F)cc1)C(=O)O; Pen = CC(C)(S)[C@H](N)C(=O)O; hCys = N[C@@H](CCS)C(=O)O

B1: Ac-Arg-cyclo[Cys-D-Ile-His-D-Phe-Arg-Trp-Cys]-NH2 (peptide)
peptide: Ac-RC[dI]H[dF]RWC-NH2
modifications: disulfide 2-8
B2: Ac-Arg-cyclo[Cys-D-Ala-Pro-D-Phe(p-F)-Arg-Trp-Cys]-NH2 (peptide)
peptide: Ac-RC[dA]P[dPhe(4-F)]RWC-NH2
modifications: disulfide 2-8
SMILES: CC(=O)N[C@@H](CCCNC(=N)N)C(=O)N[C@H]1CSSC[C@@H](C(N)=O)NC(=O)[C@H](Cc2c[nH]c3ccccc23)NC(=O)[C@H](CCCNC(=N)N)NC(=O)[C@@H](Cc2ccc(F)cc2)NC(=O)[C@@H]2CCCN2C(=O)[C@@H](C)NC1=O
B3: Ac-Arg-cyclo[Cys-D-Ala-Pro-D-Phe-Arg-Trp-Cys]-NH2 (peptide)
peptide: Ac-RC[dA]P[dF]RWC-NH2
modifications: disulfide 2-8
SMILES: CC(=O)N[C@@H](CCCNC(=N)N)C(=O)N[C@H]1CSSC[C@@H](C(N)=O)NC(=O)[C@H](Cc2c[nH]c3ccccc23)NC(=O)[C@H](CCCNC(=N)N)NC(=O)[C@@H](Cc2ccccc2)NC(=O)[C@@H]2CCCN2C(=O)[C@@H](C)NC1=O
B4: Ac-Arg-cyclo[Cys-D-Ala-Gln-D-Phe-Arg-Trp-Cys]-NH2 (peptide)
peptide: Ac-RC[dA]Q[dF]RWC-NH2
modifications: disulfide 2-8
SMILES: CC(=O)N[C@@H](CCCNC(=N)N)C(=O)N[C@H]1CSSC[C@@H](C(N)=O)NC(=O)[C@H](Cc2c[nH]c3ccccc23)NC(=O)[C@H](CCCNC(=N)N)NC(=O)[C@@H](Cc2ccccc2)NC(=O)[C@H](CCC(N)=O)NC(=O)[C@@H](C)NC1=O
B5: Ac-Arg-cyclo[Cys-D-Ala-Tyr-D-Phe-Arg-Trp-Cys]-NH2 (peptide)
peptide: Ac-RC[dA]Y[dF]RWC-NH2
modifications: disulfide 2-8
SMILES: CC(=O)N[C@@H](CCCNC(=N)N)C(=O)N[C@H]1CSSC[C@@H](C(N)=O)NC(=O)[C@H](Cc2c[nH]c3ccccc23)NC(=O)[C@H](CCCNC(=N)N)NC(=O)[C@@H](Cc2ccccc2)NC(=O)[C@H](Cc2ccc(O)cc2)NC(=O)[C@@H](C)NC1=O
B6: Ac-Arg-cyclo[hCys-Ala-D-Phe-Arg-Trp-Cys]-NH2 (peptide)
peptide: Ac-R[hCys]A[dF]RWC-NH2
modifications: disulfide 2-7
SMILES: CC(=O)N[C@@H](CCCNC(=N)N)C(=O)N[C@H]1CCSSC[C@@H](C(N)=O)NC(=O)[C@H](Cc2c[nH]c3ccccc23)NC(=O)[C@H](CCCNC(=N)N)NC(=O)[C@@H](Cc2ccccc2)NC(=O)[C@H](C)NC1=O
B7: Ac-Arg-cyclo[Cys-D-Val-His-D-Phe-Arg-Trp-Cys]-NH2 (peptide)
peptide: Ac-RC[dV]H[dF]RWC-NH2
modifications: disulfide 2-8
B8: Ac-Arg-cyclo[hCys-D-Ala-D-Phe-Arg-Trp-Cys]-NH2 (peptide)
peptide: Ac-R[hCys][dA][dF]RWC-NH2
modifications: disulfide 2-7
SMILES: CC(=O)N[C@@H](CCCNC(=N)N)C(=O)N[C@H]1CCSSC[C@@H](C(N)=O)NC(=O)[C@H](Cc2c[nH]c3ccccc23)NC(=O)[C@H](CCCNC(=N)N)NC(=O)[C@@H](Cc2ccccc2)NC(=O)[C@@H](C)NC1=O
B9: Ac-Arg-cyclo[Cys-D-Ala-Trp-D-Phe-Arg-Trp-Cys]-NH2 (peptide)
peptide: Ac-RC[dA]W[dF]RWC-NH2
modifications: disulfide 2-8
SMILES: CC(=O)N[C@@H](CCCNC(=N)N)C(=O)N[C@H]1CSSC[C@@H](C(N)=O)NC(=O)[C@H](Cc2c[nH]c3ccccc23)NC(=O)[C@H](CCCNC(=N)N)NC(=O)[C@@H](Cc2ccccc2)NC(=O)[C@H](Cc2c[nH]c3ccccc23)NC(=O)[C@@H](C)NC1=O
B10: Ac-Arg-cyclo[Cys-D-Ala-Arg-D-Phe-Arg-Trp-Cys]-NH2 (peptide)
peptide: Ac-RC[dA]R[dF]RWC-NH2
modifications: disulfide 2-8
SMILES: CC(=O)N[C@@H](CCCNC(=N)N)C(=O)N[C@H]1CSSC[C@@H](C(N)=O)NC(=O)[C@H](Cc2c[nH]c3ccccc23)NC(=O)[C@H](CCCNC(=N)N)NC(=O)[C@@H](Cc2ccccc2)NC(=O)[C@H](CCCNC(=N)N)NC(=O)[C@@H](C)NC1=O
B11: Ac-Arg-cyclo[Cys-D-Ala-Asn-D-Phe-Arg-Trp-Cys]-NH2 (peptide)
peptide: Ac-RC[dA]N[dF]RWC-NH2
modifications: disulfide 2-8
SMILES: CC(=O)N[C@@H](CCCNC(=N)N)C(=O)N[C@H]1CSSC[C@@H](C(N)=O)NC(=O)[C@H](Cc2c[nH]c3ccccc23)NC(=O)[C@H](CCCNC(=N)N)NC(=O)[C@@H](Cc2ccccc2)NC(=O)[C@H](CC(N)=O)NC(=O)[C@@H](C)NC1=O
B12: Ac-Arg-cyclo[hCys-D-Ala-D-Phe-Arg-Trp-Pen]-NH2 (peptide)
peptide: Ac-R[hCys][dA][dF]RW[Pen]-NH2
modifications: disulfide 2-7
SMILES: CC(=O)N[C@@H](CCCNC(=N)N)C(=O)N[C@H]1CCSSC(C)(C)[C@@H](C(N)=O)NC(=O)[C@H](Cc2c[nH]c3ccccc23)NC(=O)[C@H](CCCNC(=N)N)NC(=O)[C@@H](Cc2ccccc2)NC(=O)[C@@H](C)NC1=O
B13: Ac-Glu-cyclo[Cys-Ala-His-D-Phe-Arg-Trp-Cys]-NH2 (peptide)
peptide: Ac-ECAH[dF]RWC-NH2
modifications: disulfide 2-8
SMILES: CC(=O)N[C@@H](CCC(=O)O)C(=O)N[C@H]1CSSC[C@@H](C(N)=O)NC(=O)[C@H](Cc2c[nH]c3ccccc23)NC(=O)[C@H](CCCNC(=N)N)NC(=O)[C@@H](Cc2ccccc2)NC(=O)[C@H](Cc2c[nH]cn2)NC(=O)[C@H](C)NC1=O
B14: Ac-Arg-cyclo[Cys-D-Leu-His-D-Phe-Arg-Trp-Cys]-NH2 (peptide)
peptide: Ac-RC[dL]H[dF]RWC-NH2
modifications: disulfide 2-8

What follows are binders tested against melanocortin-4 receptor (human, UniProt P32245 1-332) (assay: cell-based or functional assay).
melanocortin-4 receptor, sequence (P32245 whole entry): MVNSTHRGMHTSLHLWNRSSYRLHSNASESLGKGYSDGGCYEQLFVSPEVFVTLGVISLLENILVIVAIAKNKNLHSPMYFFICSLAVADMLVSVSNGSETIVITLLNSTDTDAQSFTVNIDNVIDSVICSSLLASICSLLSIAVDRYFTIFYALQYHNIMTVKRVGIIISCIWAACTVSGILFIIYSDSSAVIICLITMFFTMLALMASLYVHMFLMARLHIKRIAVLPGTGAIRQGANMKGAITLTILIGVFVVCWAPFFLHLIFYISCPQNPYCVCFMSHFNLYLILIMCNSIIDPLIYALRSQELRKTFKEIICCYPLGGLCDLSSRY

cAMP Assay (EC-50) [nM] | Binder
1 | B1
24 | B2
56 | B3
1.6 | B4
45.1 | B5
0.26 | B6
1.34 | B7
7.5 | B8
34 | B9
2.7 | B10
3 | B11
13.7 | B12
< 0.5 | B13
0.7 | B14

Each binder was assayed against melanocortin-3 receptor (human, UniProt P41968 1-323) (assay: cell-based or functional assay).
melanocortin-3 receptor, sequence (P41968 whole entry): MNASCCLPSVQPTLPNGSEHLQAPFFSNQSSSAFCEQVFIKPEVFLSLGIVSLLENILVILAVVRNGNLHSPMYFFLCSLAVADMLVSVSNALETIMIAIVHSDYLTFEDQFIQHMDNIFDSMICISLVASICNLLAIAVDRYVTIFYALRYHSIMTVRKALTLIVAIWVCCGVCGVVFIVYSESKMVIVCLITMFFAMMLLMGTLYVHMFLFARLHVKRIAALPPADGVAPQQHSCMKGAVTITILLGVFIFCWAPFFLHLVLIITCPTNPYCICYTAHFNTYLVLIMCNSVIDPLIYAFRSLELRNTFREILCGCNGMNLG

Ratios of EC50 values MC 3/4 (MC3R against MC4R) [ratio] | cAMP Assay (EC-50) [nM] | Binder
0.96 | 0.96 | B1
> 400 | > 10000 | B2
> 200 | > 10000 | B3
5 | 8.6 | B4
> 22.2 | > 1000 | B5
3.8 | 1 | B6
1.19 | 1.59 | B7
420 | 3160 | B8
> 290 | > 10000 | B9
1.45 | 3.9 | B10
30 | 81 | B11
17 | 233 | B12
> 20 | 9.9 | B13
1.13 | 0.79 | B14

The binders below were run against melanocortin-5 receptor (human, UniProt P33032 1-325) (assay: cell-based or functional assay).
melanocortin-5 receptor, sequence (P33032 whole entry): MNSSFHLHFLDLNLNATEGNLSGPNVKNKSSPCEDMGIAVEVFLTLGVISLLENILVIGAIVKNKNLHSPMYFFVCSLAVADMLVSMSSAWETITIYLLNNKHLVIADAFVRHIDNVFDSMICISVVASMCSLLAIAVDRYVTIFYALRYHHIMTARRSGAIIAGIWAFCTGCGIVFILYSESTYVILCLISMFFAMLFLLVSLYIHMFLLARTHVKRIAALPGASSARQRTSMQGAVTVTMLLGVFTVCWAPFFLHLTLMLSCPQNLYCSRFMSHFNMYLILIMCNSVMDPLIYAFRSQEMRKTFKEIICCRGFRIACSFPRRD

Ratios of EC50 values MC 5/4 (MC5R against MC4R) [ratio] | cAMP Assay (EC-50) [nM] | Binder
420 | 420 | B1
12 | 283 | B2
13 | 707 | B3
155 | 255 | B4
161 | 42 | B6
584 | 782 | B7
> 1340 | > 10000 | B8
7 | 259 | B9
530 | 1490 | B11
159 | 2180 | B12
> 2560 | 1280 | B13
130 | 91 | B14

These binders were tested against melanocortin-1 receptor (human, UniProt Q01726 1-317) (assay: cell-based or functional assay).
melanocortin-1 receptor, sequence (Q01726 whole entry): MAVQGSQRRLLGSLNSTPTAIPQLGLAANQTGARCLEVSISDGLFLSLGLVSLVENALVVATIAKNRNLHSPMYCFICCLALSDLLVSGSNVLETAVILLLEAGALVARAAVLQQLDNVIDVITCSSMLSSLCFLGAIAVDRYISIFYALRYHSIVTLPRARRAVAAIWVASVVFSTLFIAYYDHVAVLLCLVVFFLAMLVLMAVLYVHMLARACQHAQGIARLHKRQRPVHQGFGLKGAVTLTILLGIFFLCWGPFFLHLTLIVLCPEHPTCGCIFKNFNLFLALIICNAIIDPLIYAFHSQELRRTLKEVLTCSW

Ratios of EC50 values MC 1/4 (MC1R against MC4R) [ratio] | cAMP Assay (EC-50) [nM] | Binder
0.69 | 0.69 | B1
7 | 169 | B2
5 | 280 | B3
40 | 71 | B4
6.67 | 301 | B5
15 | 4 | B6
0.93 | 1.25 | B7
120 | 888 | B8
8 | 273 | B9
2.31 | 6.2 | B10
90 | 248 | B11
15 | 195 | B12
> 3 | 1.7 | B13
0.68 | 0.47 | B14
